This note sets out measurements from patent publication US20100291638.

Common to all, as to conditions: dNTP incorporation; background <500
In series [1] the test system is T1, DNA polymerase clone 74 (uncultured hot spring virus (Great Boiling Spring)).
T1 sequence: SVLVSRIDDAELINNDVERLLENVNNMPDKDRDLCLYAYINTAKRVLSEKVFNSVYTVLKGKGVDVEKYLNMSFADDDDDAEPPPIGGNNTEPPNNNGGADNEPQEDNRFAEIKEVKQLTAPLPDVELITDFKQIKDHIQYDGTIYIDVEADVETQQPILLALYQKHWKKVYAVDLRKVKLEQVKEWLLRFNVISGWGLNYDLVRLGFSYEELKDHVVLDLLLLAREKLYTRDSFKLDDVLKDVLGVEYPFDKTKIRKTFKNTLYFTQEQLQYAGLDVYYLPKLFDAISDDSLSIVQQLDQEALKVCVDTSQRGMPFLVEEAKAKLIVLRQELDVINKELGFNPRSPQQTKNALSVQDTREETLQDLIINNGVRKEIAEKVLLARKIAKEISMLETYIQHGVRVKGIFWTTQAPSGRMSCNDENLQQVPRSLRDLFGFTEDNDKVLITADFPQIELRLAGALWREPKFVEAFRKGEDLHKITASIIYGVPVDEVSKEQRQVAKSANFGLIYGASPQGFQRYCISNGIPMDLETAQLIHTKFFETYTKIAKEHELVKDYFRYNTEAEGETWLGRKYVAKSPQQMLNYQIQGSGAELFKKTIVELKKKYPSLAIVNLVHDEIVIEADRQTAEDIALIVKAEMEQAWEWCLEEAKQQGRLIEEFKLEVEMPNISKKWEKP

In series [2] the test system is T2, DNA polymerase clone 347 (uncultured hot spring virus (Great Boiling Spring)).
T2 sequence: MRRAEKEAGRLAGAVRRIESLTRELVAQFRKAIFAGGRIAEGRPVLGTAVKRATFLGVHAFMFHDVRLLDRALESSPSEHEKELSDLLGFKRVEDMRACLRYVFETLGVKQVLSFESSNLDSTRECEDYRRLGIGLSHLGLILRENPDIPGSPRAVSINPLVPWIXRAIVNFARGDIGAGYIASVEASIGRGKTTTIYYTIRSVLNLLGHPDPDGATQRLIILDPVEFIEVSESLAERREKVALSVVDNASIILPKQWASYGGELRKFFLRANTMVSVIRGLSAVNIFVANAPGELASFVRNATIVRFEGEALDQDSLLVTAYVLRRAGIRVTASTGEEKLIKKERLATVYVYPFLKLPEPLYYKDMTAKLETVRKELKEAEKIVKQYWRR

Series [3] deals with T3, DNA polymerase clone 1753 (uncultured hot spring virus (Great Boiling Spring)).
T3 sequence: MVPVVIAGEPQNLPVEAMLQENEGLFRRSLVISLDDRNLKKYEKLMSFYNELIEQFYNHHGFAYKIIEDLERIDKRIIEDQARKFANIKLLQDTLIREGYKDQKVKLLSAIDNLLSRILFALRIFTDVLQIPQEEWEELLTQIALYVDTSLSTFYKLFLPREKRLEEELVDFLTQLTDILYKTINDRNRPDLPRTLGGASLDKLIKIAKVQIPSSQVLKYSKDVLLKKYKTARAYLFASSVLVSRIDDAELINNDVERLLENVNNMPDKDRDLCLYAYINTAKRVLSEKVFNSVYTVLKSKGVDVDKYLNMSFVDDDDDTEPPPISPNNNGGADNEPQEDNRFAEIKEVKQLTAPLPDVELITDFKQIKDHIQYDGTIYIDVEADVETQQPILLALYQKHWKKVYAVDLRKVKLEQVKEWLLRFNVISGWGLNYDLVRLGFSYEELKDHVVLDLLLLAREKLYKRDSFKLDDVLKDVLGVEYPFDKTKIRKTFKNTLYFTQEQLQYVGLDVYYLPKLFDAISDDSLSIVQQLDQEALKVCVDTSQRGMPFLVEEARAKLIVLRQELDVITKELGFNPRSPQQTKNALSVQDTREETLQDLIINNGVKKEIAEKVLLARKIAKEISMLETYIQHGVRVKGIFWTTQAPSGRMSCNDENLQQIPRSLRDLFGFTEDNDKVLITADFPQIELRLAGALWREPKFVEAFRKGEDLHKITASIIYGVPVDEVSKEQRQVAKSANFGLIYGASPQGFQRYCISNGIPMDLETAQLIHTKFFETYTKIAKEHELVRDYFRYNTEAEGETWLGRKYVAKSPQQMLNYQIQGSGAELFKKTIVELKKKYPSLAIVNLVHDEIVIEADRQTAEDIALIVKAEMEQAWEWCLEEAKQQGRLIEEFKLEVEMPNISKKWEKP

For series [4], the system named is T4, DNA polymerase clone 1160 (uncultured hot spring virus (Great Boiling Spring)).
T4 sequence: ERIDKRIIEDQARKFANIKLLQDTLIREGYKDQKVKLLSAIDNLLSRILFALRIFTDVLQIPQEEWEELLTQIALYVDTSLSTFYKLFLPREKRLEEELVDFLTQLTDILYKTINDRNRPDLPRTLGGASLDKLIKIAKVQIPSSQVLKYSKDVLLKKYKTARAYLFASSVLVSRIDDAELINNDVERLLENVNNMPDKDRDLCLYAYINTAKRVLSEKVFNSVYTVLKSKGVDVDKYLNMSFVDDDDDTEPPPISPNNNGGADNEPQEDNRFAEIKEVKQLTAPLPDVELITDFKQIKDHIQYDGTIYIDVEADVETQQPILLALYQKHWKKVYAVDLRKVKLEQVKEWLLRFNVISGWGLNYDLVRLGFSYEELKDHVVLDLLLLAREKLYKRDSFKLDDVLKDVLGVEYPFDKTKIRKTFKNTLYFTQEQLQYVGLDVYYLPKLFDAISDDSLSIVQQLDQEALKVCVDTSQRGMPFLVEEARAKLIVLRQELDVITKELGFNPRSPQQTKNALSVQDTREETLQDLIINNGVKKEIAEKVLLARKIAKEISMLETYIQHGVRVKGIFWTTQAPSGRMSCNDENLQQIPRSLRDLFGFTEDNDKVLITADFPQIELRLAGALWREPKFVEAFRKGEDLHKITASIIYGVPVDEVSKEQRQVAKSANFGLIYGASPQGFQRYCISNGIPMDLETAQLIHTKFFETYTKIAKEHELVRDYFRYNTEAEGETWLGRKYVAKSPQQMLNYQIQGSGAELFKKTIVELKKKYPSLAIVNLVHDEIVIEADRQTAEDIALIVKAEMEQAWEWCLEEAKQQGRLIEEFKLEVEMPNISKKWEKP

On to activated calf thymus DNA, for which the activity was determined as 47400 cpm in series [1], 18700 cpm in series [2], 141000 cpm in series [3] and 139000 cpm in series [4].
